Among the data in publication PMC5730846 are Hsp90α ATPase activity in vitro after incubation with 1 μM Tsc1-D-His6 and addition of 1.3 μM Aha1-FLAG (percent of Hsp90α alone) and Kd values, retold here.

A value given as a limit tells only on which side of the number the result lay.

For test [1], the target named is recombinant Hsp90α (human) (UniProt P07900).
For test [2], the target named is Tsc1-D-His6 labeled with Texas Red maleimide (UniProt Q92574). Briefly: fluorescence polarisation; fluorescence anisotropy; 1 μM Texas Red-labeled Tsc1-D, Hsp90α at the indicated concentrations; 50 mM Tris pH 7.2, 150 mM NaCl, 1 mM TCEP, 4 mM MgCl2; no nucleotide or drug; single-site fit.
Chain of Tsc1-D-His6 labeled with Texas Red maleimide (Q92574 998-1164): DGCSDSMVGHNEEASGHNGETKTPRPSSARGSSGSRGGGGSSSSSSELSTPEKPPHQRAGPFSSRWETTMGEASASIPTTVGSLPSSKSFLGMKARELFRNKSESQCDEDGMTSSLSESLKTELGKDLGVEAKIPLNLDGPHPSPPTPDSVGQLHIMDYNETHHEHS
For test [3] the target is unchanged. As to the kind of experiment: fluorescence polarisation; as a5, Hsp90α pre-incubated with 1 μM GB (ganetespib).

Chain of recombinant Aha1-FLAG (O95433 whole entry): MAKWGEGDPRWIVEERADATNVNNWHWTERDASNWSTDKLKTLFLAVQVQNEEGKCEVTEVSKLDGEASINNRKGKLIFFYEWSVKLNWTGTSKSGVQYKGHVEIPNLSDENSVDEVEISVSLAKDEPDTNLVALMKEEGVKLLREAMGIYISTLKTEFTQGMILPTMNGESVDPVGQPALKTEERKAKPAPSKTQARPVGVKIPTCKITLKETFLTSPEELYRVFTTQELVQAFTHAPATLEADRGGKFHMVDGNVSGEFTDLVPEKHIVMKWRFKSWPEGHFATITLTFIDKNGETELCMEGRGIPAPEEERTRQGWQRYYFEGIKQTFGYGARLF

Regarding “recombinant Aha1-FLAG (from UniProt O95433 1-338) (natural protein)”, in test [1], the Hsp90α ATPase activity in vitro after incubation with 1 μM Tsc1-D-His6 and addition of 1.3 μM Aha1-FLAG (percent of Hsp90α alone) turned out to be 100%.

For the substance “recombinant Hsp90α (from UniProt P07900 1-732) (natural protein)”, the Kd in test [2] is 480 nM; in test [3], over 5000 nM.
